Measurements reported in patent US20260125457A1 (Janssen / Centocor, published 2026).
Each block holds one molecule with its values, some of them ahead of it.

Experiments:
[1] = molecular target: HIS-CALRdel52 (produced in E. coli); experiment: QC monoclonal phage ELISA, helper phage control
[2] = molecular target: T1, CD3 on primary human pan T cells (human, UniProt P07766 23-207); experiment: flow cytometry on pan CD3 T cells, 1 h at 37 C, AF647 secondary antibody, Geometric Mean
T1 construct: whole, on cells; also called CD3e; CD3ε
Protocol: FIG. 22 depicts binding of different CALRmutxCD3 bispecific antibodies to pan CD3 T cells. Flow cytometry was used to evaluate CALRmutxCD3 binding to pan CD3 T cells in vitro, by 1 hour 37° C. incubation, with subsequent incubation with secondary AF647-labeled antibody. Geometric mean fluorescence intensity of AF647 was measured to determine antibody binding.
Flow cytometry was used to evaluate the CD3 arm binding of CALRmutxCD3 antibodies listed in Table 21 to CD3+ pan T cells from healthy human donor. CALRmutxCD3 were tested after 1 hour 37° C. incubation with pan T cells.

[3] = molecular target: T2, wild-type calreticulin (CALRwt) expressed with MPL in engineered cancer cells (UniProt P27797 18-417, limits assumed); experiment: flow cytometry on ELF-153 MPL CALRwt cells, 1 h at 37 C, AF647 secondary antibody, Geometric Mean
T2 construct: whole, on cells; also called OCI-M2 MPL CALRwt
T2 sequence (looked up): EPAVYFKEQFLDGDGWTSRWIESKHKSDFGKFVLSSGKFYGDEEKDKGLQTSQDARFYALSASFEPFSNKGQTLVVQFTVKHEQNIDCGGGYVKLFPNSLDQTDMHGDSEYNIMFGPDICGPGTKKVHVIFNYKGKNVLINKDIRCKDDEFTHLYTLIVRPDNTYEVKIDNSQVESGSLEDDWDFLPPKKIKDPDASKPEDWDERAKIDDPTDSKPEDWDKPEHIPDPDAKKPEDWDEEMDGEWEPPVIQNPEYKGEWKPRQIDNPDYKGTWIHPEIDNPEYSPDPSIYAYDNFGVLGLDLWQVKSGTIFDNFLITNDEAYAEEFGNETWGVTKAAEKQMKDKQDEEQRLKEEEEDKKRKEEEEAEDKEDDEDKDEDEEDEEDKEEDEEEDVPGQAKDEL
Protocol: (§1) FIGS. 21A-21F depict binding of different CALRmutxCD3 bispecific antibodies to CALRmut-negative or CALRmut-positive cells. Flow cytometry was used to evaluate CALRmutxCD3 binding to CALRmut-negative and CALRmut-positive cancer cells in vitro. CALRmutxCD3 antibodies were tested on a panel of cell lines, engineered to express MPL and CALRmut, after 1 hour 37° C. incubation, with subsequent incubation with secondary AF647-labeled antibody. Geometric mean fluorescence intensity of AF647 was measured to determine antibody binding.

[4] = molecular target: T3, CALRins5 (mutant calreticulin, 5 base pair insertion, Type 2) expressed with MPL on engineered cancer cells (UniProt P27797 18-417); experiment: flow cytometry on ELF-153 MPL CALRins5 cells, 1 h at 37 C, AF647 secondary antibody, Geometric Mean
T3 construct: whole, on cells; On the cell surface in complex with MPL; also called OCI-M2 MPL CALRins5
T3 sequence (looked up): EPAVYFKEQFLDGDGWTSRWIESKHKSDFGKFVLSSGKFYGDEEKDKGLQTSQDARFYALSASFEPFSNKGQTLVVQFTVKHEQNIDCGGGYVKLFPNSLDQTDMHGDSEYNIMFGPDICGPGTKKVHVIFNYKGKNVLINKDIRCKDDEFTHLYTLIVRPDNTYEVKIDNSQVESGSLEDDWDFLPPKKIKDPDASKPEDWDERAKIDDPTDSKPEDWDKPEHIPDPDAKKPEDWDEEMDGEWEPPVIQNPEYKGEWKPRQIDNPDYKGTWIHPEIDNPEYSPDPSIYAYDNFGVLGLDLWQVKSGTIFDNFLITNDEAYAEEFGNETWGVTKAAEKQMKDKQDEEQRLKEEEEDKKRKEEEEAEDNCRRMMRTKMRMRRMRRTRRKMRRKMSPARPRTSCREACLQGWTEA
Protocol: as §1

[5] = molecular target: T4, CALRdel52 (mutant calreticulin, 52 base pair deletion, Type 1) expressed with MPL on engineered cancer cells (UniProt P27797 18-417); experiment: flow cytometry on OCI-M2 MPL CALRdel52 cells, 1 h at 37 C, AF647 secondary antibody, Geometric Mean
T4 construct: whole, on cells; On the cell surface in complex with MPL; also called OCI-M2 MPL CALRdel52
T4 sequence (looked up): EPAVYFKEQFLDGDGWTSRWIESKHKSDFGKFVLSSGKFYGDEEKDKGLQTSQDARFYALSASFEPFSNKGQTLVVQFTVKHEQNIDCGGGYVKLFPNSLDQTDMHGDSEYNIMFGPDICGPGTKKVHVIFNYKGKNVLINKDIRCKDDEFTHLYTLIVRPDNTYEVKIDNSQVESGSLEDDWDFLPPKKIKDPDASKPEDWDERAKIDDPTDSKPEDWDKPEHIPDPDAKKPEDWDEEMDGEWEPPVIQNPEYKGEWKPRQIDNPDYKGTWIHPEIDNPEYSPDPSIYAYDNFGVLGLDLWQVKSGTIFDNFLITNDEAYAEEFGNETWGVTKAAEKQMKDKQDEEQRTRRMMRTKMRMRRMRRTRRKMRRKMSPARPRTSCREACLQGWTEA
Protocol: as §1

T1 sequence (P07766 23-207): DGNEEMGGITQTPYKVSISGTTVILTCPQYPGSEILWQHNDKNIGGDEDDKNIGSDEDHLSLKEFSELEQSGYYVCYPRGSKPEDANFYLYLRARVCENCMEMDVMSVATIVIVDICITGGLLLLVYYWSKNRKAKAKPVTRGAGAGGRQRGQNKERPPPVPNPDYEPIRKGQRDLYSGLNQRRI

phage ELISA signal (Coating: CALR) [1]: 0.225
Molecule: M13KO7

binding result [2]: binds
binding result [3]: no binding (tested: 100 nM)
EC50 (read off the curve) [4]: ~0.5 nM
EC50 (read off the curve) [5]: ~2 nM
B1: C3CRB75 CALRmut x CD3 bispecific antibody (bispecific antibody, human IgG1, kappa, L234A L235A)
heavy 1: EVQLLESGGGLVQPGGSLRLSCAVSGIDLSNNAISWVRQAPGKGLEYVGVIGNTGDTYYADSAKGRFTISRDSSKTTLYLQMNSLRAEDTAVYFCVRGPPSYSSSVKNIWGQGTLVTVSSASTKGPSVFPLAPSSKSTSGGTAALGCLVKDYFPEPVTVSWNSGALTSGVHTFPAVLQSSGLYSLSSVVTVPSSSLGTQTYICNVNHKPSNTKVDKKVEPKSCDGGGGSGGGGSDIQMTQSPSSLSASVGDRVTITCRARQSIGTAIHWYQQKPGCAPKLLIKYASESISGVPSRFSGSGSGTDFTLTISSLQPEDFATYYCQQSGSWPYTFGQGTKLEIKGGGSGGSGGCPPCGGSGGEVQLVESGGGLVKPGGSLRLSCAASGFTFSRYNMNWVRQAPGKGLEWVSSISTSSNYIYYADSVKGRFTFSRDNAKNSLDLQMSGLRAEDTAIYYCTRGWGPFDYWGCGTLVTVSSEPKSSDKTHTCPPCPAPEAAGGPSVFLFPPKPKDTLMISRTPEVTCVVVSVSHEDPEVKFNWYVDGVEVHNAKTKPREEQYNSTYRVVSVLTVLHQDWLNGKEYKCKVSNKALPAPIEKTISKAKGQPREPQVYTLPPSREEMTKNQVSLWCLVKGFYPSDIAVEWESNGQPENNYKTTPPVLDSDGSFFLYSKLTVDKSRWQQGNVFSCSVMHEALHNHYTQKSLSLSPGK
heavy 2: EVQLLESGGGLVQPGGSLRLSCAVSGIDLSNNAISWVRQAPGKGLEYVGVIGNTGDTYYADSAKGRFTISRDSSKTTLYLQMNSLRAEDTAVYFCVRGPPSYSSSVKNIWGQGTLVTVSSASTKGPSVFPLAPSSKSTSGGTAALGCLVKDYFPEPVTVSWNSGALTSGVHTFPAVLQSSGLYSLSSVVTVPSSSLGTQTYICNVNHKPSNTKVDKKVEPKSCDKTHTCPPCPAPEAAGGPSVFLFPPKPKDTLMISRTPEVTCVVVSVSHEDPEVKFNWYVDGVEVHNAKTKPREEQYNSTYRVVSVLTVLHQDWLNGKEYKCKVSNKALPAPIEKTISKAKGQPREPQVYTLPPSREEMTKNQVSLSCAVKGFYPSDIAVEWESNGQPENNYKTTPPVLDSDGSFFLVSKLTVDKSRWQQGNVFSCSVMHEALHNRFTQKSLSLSPGK
light: DIQMTQSPSSVSASVGDRVTITCQSSQSVYNNNWLSWLQQKPGKAPKRLIYDASKLESGVPSRFSGSGSGTDFTLTISSVQPEDAATYYCAGGFTGNVYTFGGGTKVEIKRTVAAPSVFIFPPSDEQLKSGTASVVCLLNNFYPREAKVQWKVDNALQSGNSQESVTEQDSKDSTYSLSSTLTLSKADYEKHKVYACEVTHQGLSSPVTKSFNRGEC
notes: Chain A heavy: CALRB421 Fab heavy part, CD3 spFv, Fc; Chain B heavy: CALRB421; one light chain on each

EC50 (read off the curve) [2]: ~3 nM
binding result [3]: no binding (tested: 100 nM)
EC50 (read off the curve) [4]: ~3 nM
EC50 (read off the curve) [5]: ~4 nM
B2: CALRB1508 CALRmut x CD3 bispecific antibody (bispecific antibody, human IgG1, kappa, L234A L235A)
scFv: DIQMTQSPSSLSASVGDRVTITCRARQSIGTAIHWYQQKPGCAPKLLIKYASESISGVPSRFSGSGSGTDFTLTISSLQPEDFATYYCQQSGSWPYTFGQGTKLEIKGGGSGGSGGCPPCGGSGGEVQLVESGGGLVKPGGSLRLSCAASGFTFSRYNMNWVRQAPGKGLEWVSSISTSSNYIYYADSVKGRFTFSRDNAKNSLDLQMSGLRAEDTAIYYCTRGWGPFDYWGCGTLVTVSSEPKSSDKTHTCPPCPAPEAAGGPSVFLFPPKPKDTLMISRTPEVTCVVVSVSHEDPEVKFNWYVDGVEVHNAKTKPREEQYNSTYRVVSVLTVLHQDWLNGKEYKCKVSNKALPAPIEKTISKAKGQPREPQVYTLPPSREEMTKNQVSLWCLVKGFYPSDIAVEWESNGQPENNYKTTPPVLDSDGSFFLYSKLTVDKSRWQQGNVFSCSVMHEALHNHYTQKSLSLSPGK
heavy: QVQLVQSGAEVKKPGASVKVSCKASGFSLSSYAMSWVRQAPGQGLEWMGVIDSGGTTYYAQKFQGRVTMTRDTSTSTVYMELSSLRSEDTAVYYCARESYAGYDYYGHPIPYGMEPWGQGTLVTVSSASTKGPSVFPLAPSSKSTSGGTAALGCLVKDYFPEPVTVSWNSGALTSGVHTFPAVLQSSGLYSLSSVVTVPSSSLGTQTYICNVNHKPSNTKVDKKVEPKSCDKTHTCPPCPAPEAAGGPSVFLFPPKPKDTLMISRTPEVTCVVVSVSHEDPEVKFNWYVDGVEVHNAKTKPREEQYNSTYRVVSVLTVLHQDWLNGKEYKCKVSNKALPAPIEKTISKAKGQPREPQVYTLPPSREEMTKNQVSLSCAVKGFYPSDIAVEWESNGQPENNYKTTPPVLDSDGSFFLVSKLTVDKSRWQQGNVFSCSVMHEALHNRFTQKSLSLSPGK
light: DIQMTQSPSTLSASVGDRVTITCQASQSLYNNKNLAWYQQKPGKAPKLLIYYASALASGVPSRFSGSGSGTEFTLTISSLQPDDFATYYCQGEFNCNSADCNSFGGGTKVEIKRTVAAPSVFIFPPSDEQLKSGTASVVCLLNNFYPREAKVQWKVDNALQSGNSQESVTEQDSKDSTYSLSSTLTLSKADYEKHKVYACEVTHQGLSSPVTKSFNRGEC
notes: Chain A: CD3 spFv-Fc; Chain B: CALRB1114 Fab arm

binding result [2]: binds
binding result [3]: no binding (tested: 100 nM)
EC50 (read off the curve) [5]: ~1 nM
B3: C3CRB126 CALRmut x CD3 bispecific antibody (bispecific antibody, human IgG1, kappa, L234A L235A)
heavy 1: QVQLVQSGAEVKKPGASVKVSCKASGFSLSSYAMSWVRQAPGQGLEWMGVIDSGGTTYYAQKFQGRVTMTRDTSTSTVYMELSSLRSEDTAVYYCARESYAGYDYYGHPIPYGMEPWGQGTLVTVSSASTKGPSVFPLAPSSKSTSGGTAALGCLVKDYFPEPVTVSWNSGALTSGVHTFPAVLQSSGLYSLSSVVTVPSSSLGTQTYICNVNHKPSNTKVDKKVEPKSCGGGGSGGGGSDIQMTQSPSSLSASVGDRVTITCRARQSIGTAIHWYQQKPGCAPKLLIKYASESISGVPSRFSGSGSGTDFTLTISSLQPEDFATYYCQQSGSWPYTFGQGTKLEIKGGGSGGSGGCPPCGGSGGEVQLVESGGGLVKPGGSLRLSCAASGFTFSRYNMNWVRQAPGKGLEWVSSISTSSNYIYYADSVKGRFTFSRDNAKNSLDLQMSGLRAEDTAIYYCTRGWGPFDYWGCGTLVTVSSEPKSSDKTHTCPPCPAPEAAGGPSVFLFPPKPKDTLMISRTPEVTCVVVSVSHEDPEVKFNWYVDGVEVHNAKTKPREEQYNSTYRVVSVLTVLHQDWLNGKEYKCKVSNKALPAPIEKTISKAKGQPREPQVYTLPPSREEMTKNQVSLWCLVKGFYPSDIAVEWESNGQPENNYKTTPPVLDSDGSFFLYSKLTVDKSRWQQGNVFSCSVMHEALHNHYTQKSLSLSPGK
heavy 2: B2 heavy
light: B2 light
notes: Chain A heavy: CALRB1114 Fab heavy part, CD3 spFv (LH), Fc; Chain B heavy: CALRB1114
